± gives the uncertainty stated by the source.

The data set can be described thus: abundance fitness (aPCA) (normalised: wild type 0, dead -1); higher = more abundant; growth selection in yeast, the domain comes from the species named. The settings on record: Homo sapiens.
As to “E3 ubiquitin-protein ligase NEDD4-like K202P, Q96PU5”, the abundance fitness was -0.814 ± 0.12.
The result for “E3 ubiquitin-protein ligase NEDD4-like K202Q, Q96PU5” reads -0.252 ± 0.096; that for “E3 ubiquitin-protein ligase NEDD4-like K202R, Q96PU5”, -0.216 ± 0.062; that for “E3 ubiquitin-protein ligase NEDD4-like K202T, Q96PU5”, -0.308 ± 0.083.
As for “E3 ubiquitin-protein ligase NEDD4-like K202V, Q96PU5”, the figure is -0.408 ± 0.059.
The substance “E3 ubiquitin-protein ligase NEDD4-like K202W, Q96PU5” displayed an abundance fitness of -0.838 ± 0.089.
As for “E3 ubiquitin-protein ligase NEDD4-like K202Y, Q96PU5”, the figure is -0.289 ± 0.11.
On to “E3 ubiquitin-protein ligase NEDD4-like L190A, Q96PU5”, for which the abundance fitness was -0.186 ± 0.075.
As for “E3 ubiquitin-protein ligase NEDD4-like L190C, Q96PU5”, the figure is 0.09 ± 0.076; as for “E3 ubiquitin-protein ligase NEDD4-like L190D, Q96PU5”, 0.066 ± 0.1.
The result for “E3 ubiquitin-protein ligase NEDD4-like L190F, Q96PU5” reads 0.051 ± 0.095; that for “E3 ubiquitin-protein ligase NEDD4-like L190G, Q96PU5”, -0.178 ± 0.059.
The result for “E3 ubiquitin-protein ligase NEDD4-like L190H, Q96PU5” reads -0.141 ± 0.11; that for “E3 ubiquitin-protein ligase NEDD4-like L190I, Q96PU5”, 0.125 ± 0.1.
The substance “E3 ubiquitin-protein ligase NEDD4-like L190K, Q96PU5” returned an abundance fitness of 0.08 ± 0.076.
The result for “E3 ubiquitin-protein ligase NEDD4-like L190M, Q96PU5” reads -0.407 ± 0.097; that for “E3 ubiquitin-protein ligase NEDD4-like L190N, Q96PU5”, -0.031 ± 0.087.
As for “E3 ubiquitin-protein ligase NEDD4-like L190P, Q96PU5”, the figure is -0.479 ± 0.067.
The result for “E3 ubiquitin-protein ligase NEDD4-like L190Q, Q96PU5” reads -0.556 ± 0.13; that for “E3 ubiquitin-protein ligase NEDD4-like L190R, Q96PU5”, -0.024 ± 0.057; that for “E3 ubiquitin-protein ligase NEDD4-like L190S, Q96PU5”, -0.02 ± 0.056.
“E3 ubiquitin-protein ligase NEDD4-like L190T, Q96PU5” had an abundance fitness of -0.182 ± 0.074.
The result for “E3 ubiquitin-protein ligase NEDD4-like L190V, Q96PU5” reads -0.053 ± 0.053; that for “E3 ubiquitin-protein ligase NEDD4-like L190W, Q96PU5”, -0.503 ± 0.068; that for “E3 ubiquitin-protein ligase NEDD4-like L190Y, Q96PU5”, -0.094 ± 0.088.
As for “E3 ubiquitin-protein ligase NEDD4-like L195A, Q96PU5”, the figure is -0.072 ± 0.22.
As for “E3 ubiquitin-protein ligase NEDD4-like L195F, Q96PU5”, the figure is -0.902 ± 0.38.
Turning to “E3 ubiquitin-protein ligase NEDD4-like L195G, Q96PU5”, the abundance fitness was -0.581 ± 0.28.
As for “E3 ubiquitin-protein ligase NEDD4-like L195S, Q96PU5”, the figure is -0.182 ± 0.33.
The result for “E3 ubiquitin-protein ligase NEDD4-like L195V, Q96PU5” reads 0.143 ± 0.17; that for “E3 ubiquitin-protein ligase NEDD4-like L206A, Q96PU5”, 0.124 ± 0.059.
The result for “E3 ubiquitin-protein ligase NEDD4-like L206C, Q96PU5” reads 0.003 ± 0.09.
Take “E3 ubiquitin-protein ligase NEDD4-like L206D, Q96PU5”: the abundance fitness was found to be 0.015 ± 0.095.
As for “E3 ubiquitin-protein ligase NEDD4-like L206E, Q96PU5”, the figure is 0.044 ± 0.084; as for “E3 ubiquitin-protein ligase NEDD4-like L206G, Q96PU5”, 0.059 ± 0.059.
As for “E3 ubiquitin-protein ligase NEDD4-like L206I, Q96PU5”, the figure is -0.159 ± 0.13; as for “E3 ubiquitin-protein ligase NEDD4-like L206K, Q96PU5”, 0.126 ± 0.11.
The result for “E3 ubiquitin-protein ligase NEDD4-like L206M, Q96PU5” reads -0.083 ± 0.096; that for “E3 ubiquitin-protein ligase NEDD4-like L206N, Q96PU5”, -0.016 ± 0.11; that for “E3 ubiquitin-protein ligase NEDD4-like L206P, Q96PU5”, -0.707 ± 0.11.
“E3 ubiquitin-protein ligase NEDD4-like L206Q, Q96PU5” showed an abundance fitness of 0.021 ± 0.091.
“E3 ubiquitin-protein ligase NEDD4-like L206R, Q96PU5”: the abundance fitness stood at 0.04 ± 0.056.
As for “E3 ubiquitin-protein ligase NEDD4-like L206S, Q96PU5”, the figure is 0.065 ± 0.054.
“E3 ubiquitin-protein ligase NEDD4-like L206T, Q96PU5”: the abundance fitness is 0.011 ± 0.08.
As for “E3 ubiquitin-protein ligase NEDD4-like L206V, Q96PU5”, the figure is -0.056 ± 0.062; as for “E3 ubiquitin-protein ligase NEDD4-like L206W, Q96PU5”, -0.034 ± 0.077.
Turning to “E3 ubiquitin-protein ligase NEDD4-like L226A, Q96PU5”, the abundance fitness came to 0.021 ± 0.072.
As for “E3 ubiquitin-protein ligase NEDD4-like L226C, Q96PU5”, the figure is 0.063 ± 0.071.
The result for “E3 ubiquitin-protein ligase NEDD4-like L226D, Q96PU5” reads -0.023 ± 0.088.
As for “E3 ubiquitin-protein ligase NEDD4-like L226E, Q96PU5”, the figure is -0.203 ± 0.092.
Consider “E3 ubiquitin-protein ligase NEDD4-like L226F, Q96PU5”, for which the abundance fitness was -0.079 ± 0.1.
The result for “E3 ubiquitin-protein ligase NEDD4-like L226G, Q96PU5” reads -0.117 ± 0.057.
The result for “E3 ubiquitin-protein ligase NEDD4-like L226H, Q96PU5” reads -0.065 ± 0.065.
“E3 ubiquitin-protein ligase NEDD4-like L226I, Q96PU5” had an abundance fitness of -0.186 ± 0.12.
The substance “E3 ubiquitin-protein ligase NEDD4-like L226M, Q96PU5” gave an abundance fitness of 0.011 ± 0.093.
Consider “E3 ubiquitin-protein ligase NEDD4-like L226N, Q96PU5”, for which the abundance fitness was 0.01 ± 0.09.
The result for “E3 ubiquitin-protein ligase NEDD4-like L226P, Q96PU5” reads 0.104 ± 0.059.
The result for “E3 ubiquitin-protein ligase NEDD4-like L226R, Q96PU5” reads -0.007 ± 0.065; that for “E3 ubiquitin-protein ligase NEDD4-like L226S, Q96PU5”, 0.034 ± 0.07.
Substance “E3 ubiquitin-protein ligase NEDD4-like L226V, Q96PU5” gave an abundance fitness of -0.11 ± 0.063.
Consider “E3 ubiquitin-protein ligase NEDD4-like L226W, Q96PU5”, for which the abundance fitness was -0.309 ± 0.069.

Source of the values: the Human Domainome abundance scans (Beltran et al. 2025).
